Drawing on publication PMC5173320, this text covers PLA-positive cells among GFP+ cells (of 973 GFP+ cells) for one substance.

The test addresses GFP-FLN90 (short 90 kDa isoform of Drosophila filamin/cheerio with an N terminus EGFP tag) (Drosophila). Briefly: proximity ligation; in situ PLA (Duolink) in HEK293T cells co-expressing V5-dPak with GFP-FLN90 or GFP alone; fixed with 4% paraformaldehyde about 40 hr after transfection; mouse anti-V5 and rabbit anti-GFP; GFP+ cells scored as PLA+ if they had more than three puncta.

Chain of GFP-FLN90 (short 90 kDa isoform of Drosophila filamin/cheerio with an N terminus EGFP tag) (Drosophila) (Q9VEN1 whole entry, canonical isoform): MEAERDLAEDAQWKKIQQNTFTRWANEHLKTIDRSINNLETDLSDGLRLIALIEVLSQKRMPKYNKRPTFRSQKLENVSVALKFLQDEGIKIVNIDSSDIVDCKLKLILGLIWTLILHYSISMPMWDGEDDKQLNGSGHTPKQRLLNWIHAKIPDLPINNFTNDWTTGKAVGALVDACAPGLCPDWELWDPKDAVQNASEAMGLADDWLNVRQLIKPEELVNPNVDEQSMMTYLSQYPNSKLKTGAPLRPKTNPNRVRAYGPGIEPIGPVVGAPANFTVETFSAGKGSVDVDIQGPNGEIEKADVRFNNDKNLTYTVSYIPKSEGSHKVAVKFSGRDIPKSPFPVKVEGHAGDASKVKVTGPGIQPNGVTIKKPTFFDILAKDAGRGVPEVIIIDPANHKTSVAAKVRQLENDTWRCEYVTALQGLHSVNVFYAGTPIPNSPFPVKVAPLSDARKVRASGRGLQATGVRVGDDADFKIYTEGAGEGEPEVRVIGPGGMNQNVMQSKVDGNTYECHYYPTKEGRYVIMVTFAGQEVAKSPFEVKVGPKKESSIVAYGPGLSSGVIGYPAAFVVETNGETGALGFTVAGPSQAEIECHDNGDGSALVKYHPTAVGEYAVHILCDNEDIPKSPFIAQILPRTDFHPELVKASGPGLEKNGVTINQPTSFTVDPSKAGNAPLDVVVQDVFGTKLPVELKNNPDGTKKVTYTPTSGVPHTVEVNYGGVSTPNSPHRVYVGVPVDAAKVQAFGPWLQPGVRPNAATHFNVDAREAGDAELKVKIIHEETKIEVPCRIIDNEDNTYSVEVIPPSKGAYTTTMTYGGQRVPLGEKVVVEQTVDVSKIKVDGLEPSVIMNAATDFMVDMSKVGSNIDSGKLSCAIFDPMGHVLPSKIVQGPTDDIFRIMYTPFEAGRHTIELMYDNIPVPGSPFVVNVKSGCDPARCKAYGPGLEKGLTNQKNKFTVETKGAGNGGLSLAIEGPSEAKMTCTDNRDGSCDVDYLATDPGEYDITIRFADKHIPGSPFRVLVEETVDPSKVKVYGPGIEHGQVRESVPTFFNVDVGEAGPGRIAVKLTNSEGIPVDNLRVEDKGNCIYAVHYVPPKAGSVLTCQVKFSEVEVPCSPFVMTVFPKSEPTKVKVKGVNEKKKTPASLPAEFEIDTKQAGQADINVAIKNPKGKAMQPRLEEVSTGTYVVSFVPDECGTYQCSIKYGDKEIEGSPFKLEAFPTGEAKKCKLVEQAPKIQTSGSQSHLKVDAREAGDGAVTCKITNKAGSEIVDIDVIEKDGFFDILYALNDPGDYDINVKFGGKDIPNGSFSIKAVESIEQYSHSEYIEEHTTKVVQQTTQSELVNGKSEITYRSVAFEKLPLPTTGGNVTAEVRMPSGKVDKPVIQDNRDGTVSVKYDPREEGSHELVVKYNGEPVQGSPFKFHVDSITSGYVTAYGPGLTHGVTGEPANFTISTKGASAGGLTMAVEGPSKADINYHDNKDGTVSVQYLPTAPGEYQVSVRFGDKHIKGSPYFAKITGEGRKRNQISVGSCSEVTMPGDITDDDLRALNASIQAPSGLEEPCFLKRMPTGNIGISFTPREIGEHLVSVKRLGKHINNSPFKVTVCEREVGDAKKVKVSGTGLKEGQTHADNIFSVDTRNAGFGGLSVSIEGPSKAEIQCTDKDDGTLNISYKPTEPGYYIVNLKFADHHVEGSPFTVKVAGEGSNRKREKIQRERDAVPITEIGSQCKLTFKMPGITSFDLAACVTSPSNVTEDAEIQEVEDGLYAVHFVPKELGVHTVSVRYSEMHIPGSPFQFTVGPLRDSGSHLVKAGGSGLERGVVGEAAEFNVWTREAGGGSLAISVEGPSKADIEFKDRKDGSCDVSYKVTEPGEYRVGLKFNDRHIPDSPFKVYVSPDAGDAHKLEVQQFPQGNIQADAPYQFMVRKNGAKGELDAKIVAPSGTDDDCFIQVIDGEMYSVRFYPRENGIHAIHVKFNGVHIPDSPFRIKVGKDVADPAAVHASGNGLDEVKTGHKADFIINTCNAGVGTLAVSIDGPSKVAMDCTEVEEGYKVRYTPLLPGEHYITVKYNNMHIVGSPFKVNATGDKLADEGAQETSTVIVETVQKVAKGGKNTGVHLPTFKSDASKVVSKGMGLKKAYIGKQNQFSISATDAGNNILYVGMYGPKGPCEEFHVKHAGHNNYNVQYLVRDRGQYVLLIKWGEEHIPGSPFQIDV

On to “V5-dPak (Drosophila p21-activated kinase Pak with a V5 tag) (from UniProt Q9VI13 1-704) (enzyme)”, for which the PLA-positive cells among GFP+ cells (of 973 GFP+ cells) is 484.
